{
  "source": "patent US8673856B2",
  "about": "(Anygen Co., Ltd., priority 2006, dated 2014)",
  "key": {"[1]": {"molecular_target": "T1, human N-type calcium channel (Homo sapiens, UniProt Q00975)", "T1 construct": "expressed in transfected cells; host or cells: HEK 293 (human embryonic kidney) cells", "format": "cell-based"}, "[2]": {"molecular_target": "T1, human N-type calcium channel", "format": "cell-based", "remark": "listed apart in the source"}},
  "note": "No end group written: not given here.",
  "data": [
    {"substance": "CKGTGKSCSRLMYNCCTGSCRSGKC-NH2 (CKGTGKSCSRLMYNCCTGSCRSGKC-NH2; ends and bridges not checked) [FVIA[I11L, A12M], FVIA with Ile11 and Ala12 mutated to Leu and Met]", "values": [
      {"measurement": "Reversibility", "setting": "[1]", "value": "significantly reduced reversibility"},
      {"measurement": "Calcium channel blocking activity", "setting": "[2]", "value": "calcium channel blocking activity similar to FVIA"}
    ]}
  ]
}
